Assay results as given in patent US20260078197A1.

Target: Macaca fascicularis (crab-eating macaque) TFR1 expressed on CHO-S cells (Macaca fascicularis (crab-eating macaque))
Assay: flow cytometry on CHO-S-fasTFR1 cells; anti-hIgG-Fc Alexa Fluor 647 secondary

Chain of Macaca fascicularis (crab-eating macaque) TFR1 expressed on CHO-S cells (Macaca fascicularis (crab-eating macaque)) (chain, as listed by the source limits assumed): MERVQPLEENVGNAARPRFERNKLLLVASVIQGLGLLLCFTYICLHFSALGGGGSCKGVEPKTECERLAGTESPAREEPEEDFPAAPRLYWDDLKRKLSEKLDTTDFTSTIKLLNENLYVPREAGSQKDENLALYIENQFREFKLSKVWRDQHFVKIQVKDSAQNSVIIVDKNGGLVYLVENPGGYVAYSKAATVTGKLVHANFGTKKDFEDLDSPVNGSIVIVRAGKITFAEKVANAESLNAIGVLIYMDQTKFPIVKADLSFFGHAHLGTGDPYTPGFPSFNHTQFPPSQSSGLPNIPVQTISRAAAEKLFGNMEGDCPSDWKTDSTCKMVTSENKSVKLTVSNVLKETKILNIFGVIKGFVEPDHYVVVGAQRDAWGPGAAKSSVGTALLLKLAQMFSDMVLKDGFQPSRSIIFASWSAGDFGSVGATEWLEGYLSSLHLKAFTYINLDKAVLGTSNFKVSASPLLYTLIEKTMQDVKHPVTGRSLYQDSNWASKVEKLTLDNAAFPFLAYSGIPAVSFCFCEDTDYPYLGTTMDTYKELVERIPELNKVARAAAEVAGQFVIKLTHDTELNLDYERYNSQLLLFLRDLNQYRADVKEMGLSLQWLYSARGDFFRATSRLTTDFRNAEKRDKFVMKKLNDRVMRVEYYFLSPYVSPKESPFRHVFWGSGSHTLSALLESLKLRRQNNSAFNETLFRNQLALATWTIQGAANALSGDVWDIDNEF

B1: 24C9 (antibody, human IgG1, V domains shown)
VH: EVQLVQSGGGVVQPGRSLRLSCAASGFTLSSYGMYWVRQAPGKGREWVAFIRFDESKKYYADSVKGRFTISRDNSKNTLYLQMNSLRAEDTAVYYCARDGEGGYCTNGVCHGLDVWGQGTTVTVSS
In the case of B1, the Percentage of Positive Cells is reported as 0.35%.
